# Experimental data: patent US20160235855A1, “STABLE AQUEOUS PARENTERAL PHARMACEUTICAL COMPOSITIONS OF INSULINOTROPIC PEPTIDES” (SHANGHAI BENEMAE PHARMACEUTICAL CORPORATION, priority 2013, published 2016)
# Columns and labels:
# [1] = Absorption values at 360 nm (physical stability); type: physicochemical; conditions: for Absorption values at 360 nm: 8 days
# Description: If there was evident precipitation or turbidity, no further determination would be carried out. If the samples had no abnormal phenomena observable with the naked eye, the samples were taken and subjected to determination of absorption values at 360 nm and HPLC detection, wherein the former investigated the physical stability, and the latter investigated the chemical stability.
# Absorption values determined at a wavelength of 360 nm were compared, so as to compare differences in physical stability among the samples. A higher absorption value indicated poorer physical stability.
# [2] = Long-term stability of GLP-1 formulations by HPLC; type: physicochemical
# Method: The GLP-1 purity was determined by comparing the GLP-1 peak area with the total peak area.
substance,measurement,setting,value
Glucagon-like peptide 1 [GLP-1],Absorption values at 360 nm,"[1]; pH 3.0, NaCl 0 mg/mL, 35° C.",0.0706
same,Absorption values at 360 nm,"[1]; pH 3.0, NaCl 0 mg/mL, 45° C.",0.0844
same,Absorption values at 360 nm,"[1]; pH 3.0, NaCl 1.17 mg/mL, 35° C.",0.0716
same,Absorption values at 360 nm,"[1]; pH 3.0, NaCl 1.17 mg/mL, 45° C.",0.0724
same,Absorption values at 360 nm,"[1]; pH 3.0, NaCl 8.77 mg/mL, 45° C.",0.1812
same,Absorption values at 360 nm,"[1]; pH 3.0, NaCl 29.22 mg/mL, 35° C.",0.2052
same,Absorption values at 360 nm,"[1]; pH 3.0, NaCl 29.22 mg/mL, 45° C.",0.2417
same,Absorption values at 360 nm,"[1]; pH 3.5, NaCl 0 mg/mL, 35° C.",0.0684
same,Absorption values at 360 nm,"[1]; pH 3.5, NaCl 0 mg/mL, 45° C.",0.0689
same,Absorption values at 360 nm,"[1]; pH 3.5, NaCl 1.17 mg/mL, 35° C.",0.0694
same,Absorption values at 360 nm,"[1]; pH 3.5, NaCl 1.17 mg/mL, 45° C.",0.0823
same,Absorption values at 360 nm,"[1]; pH 3.5, NaCl 8.77 mg/mL, 35° C.",0.1882
same,Absorption values at 360 nm,"[1]; pH 3.5, NaCl 8.77 mg/mL, 45° C.",0.1780
same,Absorption values at 360 nm,"[1]; pH 4.0, NaCl 0 mg/mL, 35° C.",0.0686
same,Absorption values at 360 nm,"[1]; pH 4.0, NaCl 0 mg/mL, 45° C.",0.0843
same,Absorption values at 360 nm,"[1]; pH 4.0, NaCl 1.17 mg/mL, 35° C.",0.1354
same,Absorption values at 360 nm,"[1]; pH 4.0, NaCl 1.17 mg/mL, 45° C.",0.1448
same,Absorption values at 360 nm,"[1]; pH 4.0, NaCl 8.77 mg/mL, 35° C.",0.1907
same,Absorption values at 360 nm,"[1]; pH 4.0, NaCl 8.77 mg/mL, 45° C.",0.1974
same,Absorption values at 360 nm,"[1]; pH 4.5, NaCl 0 mg/mL, 35° C.",0.1326
same,Absorption values at 360 nm,"[1]; pH 4.5, NaCl 0 mg/mL, 45° C.",0.1370
same,Absorption values at 360 nm,"[1]; pH 4.5, NaCl 1.17 mg/mL, 35° C.",0.1655
same,Absorption values at 360 nm,"[1]; pH 4.5, NaCl 1.17 mg/mL, 45° C.",0.1814
same,Absorption values at 360 nm,"[1]; pH 7.0, NaCl 0 mg/mL, 35° C.",0.0813
same,Absorption values at 360 nm,"[1]; pH 7.0, NaCl 0 mg/mL, 45° C.",0.0828
same,Absorption values at 360 nm,"[1]; pH 7.0, NaCl 1.17 mg/mL, 35° C.",0.0864
same,Absorption values at 360 nm,"[1]; pH 7.0, NaCl 1.17 mg/mL, 45° C.",0.0865
same,Absorption values at 360 nm,"[1]; pH 7.0, NaCl 8.77 mg/mL, 35° C.",0.0824
same,Absorption values at 360 nm,"[1]; pH 7.0, NaCl 8.77 mg/mL, 45° C.",0.0841
same,Absorption values at 360 nm,"[1]; pH 7.0, NaCl 29.22 mg/mL, 35° C.",0.0850
same,Absorption values at 360 nm,"[1]; pH 7.0, NaCl 29.22 mg/mL, 45° C.",0.0862
same,physical stability,[1]; pH 7.0 and 7.5,normal
same,Absorption values at 360 nm,"[1]; pH 7.5, NaCl 0 mg/mL, 35° C.",0.0807
same,Absorption values at 360 nm,"[1]; pH 7.5, NaCl 0 mg/mL, 45° C.",0.0859
same,Absorption values at 360 nm,"[1]; pH 7.5, NaCl 1.17 mg/mL, 35° C.",0.0799
same,Absorption values at 360 nm,"[1]; pH 7.5, NaCl 1.17 mg/mL, 45° C.",0.0937
same,Absorption values at 360 nm,"[1]; pH 7.5, NaCl 8.77 mg/mL, 35° C.",0.0846
same,Absorption values at 360 nm,"[1]; pH 7.5, NaCl 8.77 mg/mL, 45° C.",0.0902
same,Absorption values at 360 nm,"[1]; pH 7.5, NaCl 29.22 mg/mL, 35° C.",0.0861
same,Absorption values at 360 nm,"[1]; pH 7.5, NaCl 29.22 mg/mL, 45° C.",0.0942
same,storage duration,"[2]; 2 to 8° C., composition pH about 3.5 to 5.0",≥ 2 years
same,storage duration,"[2]; 4° C., GLP-1 concentration up to 2 mg/ml, preservative added",2 years
